Target: T1, LKB1^Y49D (human, UniProt Q15831 1-433, Y49D)
T1 sequence (looked up): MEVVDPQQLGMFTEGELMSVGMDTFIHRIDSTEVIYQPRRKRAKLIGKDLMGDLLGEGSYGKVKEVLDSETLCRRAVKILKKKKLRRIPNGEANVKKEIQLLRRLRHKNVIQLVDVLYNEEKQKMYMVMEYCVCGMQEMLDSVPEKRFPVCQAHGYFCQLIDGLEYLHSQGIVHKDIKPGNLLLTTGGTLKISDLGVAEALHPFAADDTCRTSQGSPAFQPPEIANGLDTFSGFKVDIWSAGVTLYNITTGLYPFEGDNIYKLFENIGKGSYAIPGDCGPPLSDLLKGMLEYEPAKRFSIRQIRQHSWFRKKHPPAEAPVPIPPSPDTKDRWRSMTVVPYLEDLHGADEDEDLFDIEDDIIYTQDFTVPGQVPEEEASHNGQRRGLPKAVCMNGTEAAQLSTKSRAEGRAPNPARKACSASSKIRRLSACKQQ
Experiment: cell-based or functional assay

B1: STRADα (natural protein, human (endogenous in A549 and G361), UniProt Q7RTN6 1-431, looked up)
chain: MSFLVSKPERIRRWVSEKFIVEGLRDLELFGEQPPGDTRRKTNDASSESIASFSKQEVMSSFLPEGGCYELLTVIGKGFEDLMTVNLARYKPTGEYVTVRRINLEACSNEMVTFLQGELHVSKLFNHPNIVPYRATFIADNELWVVTSFMAYGSAKDLICTHFMDGMNELAIAYILQGVLKALDYIHHMGYVHRSVKASHILISVDGKVYLSGLRSNLSMISHGQRQRVVHDFPKYSVKVLPWLSPEVLQQNLQGYDAKSDIYSVGITACELANGHVPFKDMPATQMLLEKLNGTVPCLLDTSTIPAEELTMSPSRSVANSGLSDSLTTSTPRPSNGDSPSHPYHRTFSPHFHHFVEQCLQRNPDARPSASTLLNHSFFKQIKRRASEALPELLRPVTPITNFEGSQSQDHSGIFGLVTNLEELEVDDWEF
In the case of B1, the “specific in vitro kinase activity towards NUAKtide peptide in the presence of STRADα, relative to LKB1^WT” value is reported as ~30 % of LKB1^WT activity.
